{"source": "paper PMC11532958", "key": {"[1]": {"test": "domain-selective surface biotinylation of polarized cells", "conditions": "glycan lost; control: wild type"}, "[2]": {"test": "cell surface biotinylation, Western blot quantitation", "conditions": "glycan lost; control: wild type"}}}
{"substance": "voltage-gated sodium channel β2 subunit: N42,66,74Q", "values": [{"measurement": "other: apical versus basolateral polarity of surface protein", "setting": "[1]", "value": "no change"}, {"measurement": "localisation_or_trafficking", "setting": "[2]", "value": "decreases"}]}
